Patent US20210388087A1 (Chugai, published 2021)
Residue numbers refer to the chain shown, from its start.

B1: H183/L072 VL P95G (antibody, name in Kabat numbering, V domains shown)
VH: QVQLVESGGGLVQPGRSLRLSCAASGFTFSNAWMHWVRQAPGKGLEWVAQIKDKGNAYAAYYAPSVKGRFTISRDDSKNSIYLQMNSLKTEDTAVYYCHYVHYASASTVLPAFGVDAWGQGTTVTVSS
VL: DIVMTQSPLSLPVTPGEPASISCQASQELVHMNRNTYLHWYQQKPGQAPRLLIYKVSNRFPGVPDRFSGSGSGTDFTLKISRVEAEDVGVYYCAQGTSVGFTFGQGTKLEIK
notes: Dual-Ig
B2: H183/L072 VL P95Q (antibody, name in Kabat numbering, V domains shown)
VH: B1 VH
VL: B1 VL with G100Q
notes: Dual-Ig
B3: H183/L072 VL Q24A (antibody, name in Kabat numbering, V domains shown)
VH: B1 VH
VL: B1 VL with Q24A, G100P
notes: Dual-Ig
B4: H183/L072 VL P95M (antibody, name in Kabat numbering, V domains shown)
VH: B1 VH
VL: B1 VL with G100M
notes: Dual-Ig
B5: H183/L072 VL Q24V (antibody, name in Kabat numbering, V domains shown)
VH: B1 VH
VL: B1 VL with Q24V, G100P
notes: Dual-Ig
B6: H183/L072 VL Q24P (antibody, name in Kabat numbering, V domains shown)
VH: B1 VH
VL: B1 VL with Q24P, G100P
notes: Dual-Ig
B7: H183/L072 VL Q27E (antibody, name in Kabat numbering, V domains shown)
VH: B1 VH
VL: B1 VL with Q27E, G100P
notes: Dual-Ig
B8: H183/L072 VL Q24N (antibody, name in Kabat numbering, V domains shown)
VH: B1 VH
VL: B1 VL with Q24N, G100P
notes: Dual-Ig
B9: H183/L072 VL Q24M (antibody, name in Kabat numbering, V domains shown)
VH: B1 VH
VL: B1 VL with Q24M, G100P
notes: Dual-Ig
B10: H183/L072 VL Q27D (antibody, name in Kabat numbering, V domains shown)
VH: B1 VH
VL: B1 VL with Q27D, G100P
notes: Dual-Ig
B11: H183/L072 VL P95N (antibody, name in Kabat numbering, V domains shown)
VH: B1 VH
VL: B1 VL with G100N
notes: Dual-Ig
B12: H183/L072 VL Q24G (antibody, name in Kabat numbering, V domains shown)
VH: B1 VH
VL: B1 VL with Q24G, G100P
notes: Dual-Ig
B13: H183/L072 VL P95L (antibody, name in Kabat numbering, V domains shown)
VH: B1 VH
VL: B1 VL with G100L
notes: Dual-Ig
B14: H183/L072 VL Q24F (antibody, name in Kabat numbering, V domains shown)
VH: B1 VH
VL: B1 VL with Q24F, G100P
notes: Dual-Ig
B15: H183/L072 VL P95W (antibody, name in Kabat numbering, V domains shown)
VH: B1 VH
VL: B1 VL with G100W
notes: Dual-Ig
B16: H183/L072 VL Q24W (antibody, name in Kabat numbering, V domains shown)
VH: B1 VH
VL: B1 VL with Q24W, G100P
notes: Dual-Ig
B17: H183/L072 VL Q27A (antibody, name in Kabat numbering, V domains shown)
VH: B1 VH
VL: B1 VL with Q27A, G100P
notes: Dual-Ig
B18: H183/L072 VL Q24I (antibody, name in Kabat numbering, V domains shown)
VH: B1 VH
VL: B1 VL with Q24I, G100P
notes: Dual-Ig
B19: H183/L072 VL Q24H (antibody, name in Kabat numbering, V domains shown)
VH: B1 VH
VL: B1 VL with Q24H, G100P
notes: Dual-Ig
B20: H183/L072 VL P95R (antibody, name in Kabat numbering, V domains shown)
VH: B1 VH
VL: B1 VL with G100R
notes: Dual-Ig
B21: H183/L072 VL Q24D (antibody, name in Kabat numbering, V domains shown)
VH: B1 VH
VL: B1 VL with Q24D, G100P
notes: Dual-Ig
B22: H183/L072 VL Q24S (antibody, name in Kabat numbering, V domains shown)
VH: B1 VH
VL: B1 VL with Q24S, G100P
notes: Dual-Ig
B23: H183/L072 VL Q24Y (antibody, name in Kabat numbering, V domains shown)
VH: B1 VH
VL: B1 VL with Q24Y, G100P
notes: Dual-Ig
B24: H183/L072 VL Q24R (antibody, name in Kabat numbering, V domains shown)
VH: B1 VH
VL: B1 VL with Q24R, G100P
notes: Dual-Ig
B25: H183/L072 VL P95H (antibody, name in Kabat numbering, V domains shown)
VH: B1 VH
VL: B1 VL with G100H
notes: Dual-Ig
B26: H183/L072 VL Q24T (antibody, name in Kabat numbering, V domains shown)
VH: B1 VH
VL: B1 VL with Q24T, G100P
notes: Dual-Ig
B27: H183/L072 VL P95I (antibody, name in Kabat numbering, V domains shown)
VH: B1 VH
VL: B1 VL with G100I
notes: Dual-Ig
B28: H183/L072 VL Q24K (antibody, name in Kabat numbering, V domains shown)
VH: B1 VH
VL: B1 VL with Q24K, G100P
notes: Dual-Ig
B29: H183/L072 VL Q24L (antibody, name in Kabat numbering, V domains shown)
VH: B1 VH
VL: B1 VL with Q24L, G100P
notes: Dual-Ig
B30: H183/L072 VL P95K (antibody, name in Kabat numbering, V domains shown)
VH: B1 VH
VL: B1 VL with G100K
notes: Dual-Ig
B31: H183/L072 VL P95V (antibody, name in Kabat numbering, V domains shown)
VH: B1 VH
VL: B1 VL with G100V
notes: Dual-Ig
B32: H183/L072 VL P95T (antibody, name in Kabat numbering, V domains shown)
VH: B1 VH
VL: B1 VL with G100T
notes: Dual-Ig
B33: H183/L072 VL P95S (antibody, name in Kabat numbering, V domains shown)
VH: B1 VH
VL: B1 VL with G100S
notes: Dual-Ig

Target: T1, Human CD137 ECD (human)
T1 construct: entry includes C-terminal His-tag and biotin acceptor peptide; also called human CD137 extracellular domain; 4-1BB
Experiment: Biacore SPR, vs parent H183/L072

T1 sequence (chain, as listed by the source limits assumed): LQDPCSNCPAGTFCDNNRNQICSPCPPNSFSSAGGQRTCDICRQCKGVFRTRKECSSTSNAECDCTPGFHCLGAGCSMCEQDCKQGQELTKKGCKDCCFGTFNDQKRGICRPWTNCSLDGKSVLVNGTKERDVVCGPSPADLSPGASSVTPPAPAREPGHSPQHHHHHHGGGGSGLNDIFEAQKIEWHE

Binder	fold change of affinity
B1	0 fold
B2	0 fold
B3	1 fold
B4	0 fold
B5	0.9 fold
B6	0 fold
B7	1 fold
B8	0.9 fold
B9	1 fold
B10	0.9 fold
B11	0 fold
B12	1 fold
B13	0 fold
B14	0.9 fold
B15	0 fold
B16	1 fold
B17	1 fold

Binder	fold change of affinity
B18	0.9 fold
B19	1 fold
B20	0 fold
B21	0.9 fold
B22	1 fold
B23	0.9 fold
B24	0.9 fold
B25	0 fold
B26	1 fold
B27	0 fold
B28	1 fold
B29	0.9 fold
B30	0 fold
B31	0 fold
B32	0 fold
B33	0 fold
